The values below come from the supplement of paper PMC12042874.

± gives the uncertainty stated by the source.

The nature of this data set: amyloid nucleation score (Sup35N fusion, yeast selection) (log enrichment); library NNK1; higher = more nucleation; inactive = no reads after selection. The method in brief:
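For the nucleation score, DiMSum gave the log enrichment of output over input reads, centred on the mode score of non-aggregating sequences. Psi-negative yeast expressing Sup35N fused to peptides of 20 random codons were induced with 100 μM copper sulfate for 24 hours and grown 7 days at 30°C on medium lacking adenine and uracil. Input and output plasmid inserts were Illumina-sequenced, and sequences with under 100 input reads were excluded.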
Turning to LYIQSSNYRDMVYPYSVVPL, the amyloid nucleation score was 1.95 ± 0.28.
FGLYVYLPEGRHACVALRTV gave an amyloid nucleation score of -0.89 ± 0.88.
As for ILCICY, the figure is 2.48 ± 0.2; as for YWSQTRFYSMALSRSDSERT, 0.135 ± 0.27.
The result for ACFEFKLGTFRLGAALNYPG reads 1.03 ± 0.31; that for NDIPLSIRSHS, 0.269 ± 0.37.
Substance VLLVRSNKSKLDRHRDWSGK registered an amyloid nucleation score of 0.466 ± 1.4.
As for RIGTGSHLWII, the figure is -0.083 ± 0.6; as for LQAKMTIGAFFISYSSMYPG, 2.74 ± 0.08.
The result for TNSKSSSVGSKATQHN reads 0.077 ± 0.35; that for VVVWVFHFYAC, 1.16 ± 0.71.
With WCVFSLLKCINSLAQHFKGS, the amyloid nucleation score entry is “inactive”.
Take LCFYDKYGPQYL: the amyloid nucleation score was -0.59 ± 0.54.
DRWRSL showed an amyloid nucleation score of -0.582 ± 0.96.
For GIPYSVDGYVLVDVSITTIA, the amyloid nucleation score result was “inactive”.
For the substance WFRVGVPHN, the amyloid nucleation score amounted to 0.472 ± 1.2.
In turn, TGICLWLPAVVDAEES registered an amyloid nucleation score of -0.34 ± 0.35.
RFEMNCWSC returned an amyloid nucleation score of -0.802 ± 0.39.
In turn, CTSCQYKCNCWGCVRYQTWF registered an amyloid nucleation score of 2.41 ± 0.27.
The result for FCVGYRCWMYN reads -0.086 ± 0.25; that for YGVEMLPHISNAVTLFFGN, 8.133 ± 0.057; that for DRTTNVEYWLGAEMLSSRTV, -0.469 ± 0.78.
KRSANVYRLRCLGGKMLHVN yielded an amyloid nucleation score of 3.34 ± 0.081.
VALLKWFRIWVSFANCLWGR: the amyloid nucleation score was 0.128 ± 0.99.
As for RALGIDIRIFMVDDNSAFSI, the figure is 0.347 ± 1.1; as for GTLPLKDKGPYRDL, -1.08 ± 1.4; as for IRKGSFPD, -0.841 ± 0.82.
As for VYFVTFWSYVNFHV, the amyloid nucleation score was -0.208 ± 0.28.
The result for VVCRPTWRWGLKEIYE reads -0.133 ± 0.83; that for IHCDIALNRSTWLYFPFVLA, “inactive”.
As to LDSCPAL, the amyloid nucleation score was determined as 0.47 ± 0.57.
For QFMMS, the amyloid nucleation score stood at 0.052 ± 0.29.
Take LEFGSSSGAIVMRGEDPCQP: the amyloid nucleation score was found to be 0.649 ± 0.52.
RIRWSVVVNV showed an amyloid nucleation score of -0.002 ± 0.29.
With WAWYLCSPESANFHNLHRLW, the amyloid nucleation score was determined as 0.324 ± 1.1.
The substance VLYGGDLALLSFDTGHPLFL displayed an amyloid nucleation score of 0.297 ± 0.38.
Consider SQINWILYTSNFTLW, for which the amyloid nucleation score was -1.02 ± 1.7.
In turn, RMAPMMDP displayed an amyloid nucleation score of -0.227 ± 1.1.
For GLLTMIPKDYNCRISYLVHT, the amyloid nucleation score is 0.015 ± 0.64.
TYNCILNSCSSSYTKVLV: the amyloid nucleation score came to 0.703 ± 0.24.
As for GRRTAI, the figure is -0.069 ± 0.66; as for SITVKKES, 0.254 ± 0.62; as for VPVVRYYFTQFMDKYADDMF, 1.36 ± 0.58.
On to PTTYNYSCVGIVSFDFSESI, for which the amyloid nucleation score was determined as 5.293 ± 0.052.
Take MSKIGLLRLDDYHRMGFCKQ: the amyloid nucleation score was -0.469 ± 0.38.
As for DWFSGLNRPRCIKLAQGGTG, the amyloid nucleation score came to 0.441 ± 0.38.
Turning to MHISCNTDSSYTFGRNALK, the amyloid nucleation score was 0.341 ± 0.74.
As for IVYRPLAFVAVSCSESGHSV, the figure is 4.56 ± 0.087; as for YCMYMVWLKGK, -0.747 ± 0.37.
As for YDYMVALFSRS, the figure is -0.479 ± 0.66; as for DMKNDYLHVGFWVLIGWHYL, 0.743 ± 0.37.
The result for MWIPFRVYLRAH reads “inactive”; that for KLAYKRSQMLTVVPRCSQGT, -0.39 ± 0.53; that for SSIGVVKGCIVLWLSMWNQR, 4.32 ± 0.066.
Turning to NGCDIFSFGFYLLILFSLIQ, the amyloid nucleation score is -0.196 ± 0.49.
As to SVFGWR, the amyloid nucleation score was 1.32 ± 0.81.
On to NTAQVLYYL, for which the amyloid nucleation score was -0.674 ± 0.22.
Regarding PFIDNRFKLFRSDGTVRWVI, the amyloid nucleation score entry is “inactive”.
Regarding TTRMRRRY, the amyloid nucleation score was found to be 1.89 ± 0.56.
The result for WNYSHEV reads “inactive”.
RIKNGLPKGFFGKSLSPMRW had an amyloid nucleation score of -0.161 ± 0.8.
As for FCRDVSVYLDYLDGPRSGWS, the figure is -0.245 ± 0.35; as for GLKLKIREYSAFLCR, -0.027 ± 0.36.
GHHVRLLFLCVHTISYMESR came in with an amyloid nucleation score of 0.582 ± 0.9.
The substance NVAFYVTVV yielded an amyloid nucleation score of -0.049 ± 0.26.
VLLACGIFKDPTSCFCMLSL yielded an amyloid nucleation score of -0.432 ± 0.48.
Regarding HDFPIR, the amyloid nucleation score result is “inactive”.
SWAIRALKFVWIA yielded an amyloid nucleation score of -0.323 ± 0.93.
For the substance VGNRRYNTSVMALSNQRNTR, the amyloid nucleation score came out at 0.636 ± 1.
As for RFVLVMYMESLKMHCSLTYT, the amyloid nucleation score is -0.381 ± 0.27.
Consider RTSTQFPSHQYIQVVLCIS, for which the amyloid nucleation score result was “inactive”.
The result for RSPRGSVFHMFI reads 0.176 ± 1.6; that for CNRPGF, -0.249 ± 0.44; that for NKLGLLRVFKVRFPPCCCCD, -0.266 ± 0.99.
The substance LLRSILTMAY came in with an amyloid nucleation score of 0.605 ± 0.43.
The substance LFGEFRNEINAI had an amyloid nucleation score of 0.031 ± 0.31.
For the substance MRRRIQLDLRRFDPSCMKDV, the amyloid nucleation score is -1.66 ± 1.1.
Turning to QDLPAISLFTDVQSKPRTFP, the amyloid nucleation score amounted to 0.631 ± 0.95.
Turning to CLVHVRVSHNWDVTMMFGVR, the amyloid nucleation score came to 0.555 ± 0.24.
LTSWLDYDDISEWHRSDGFR gave an amyloid nucleation score of 0.987 ± 0.57.
VSTILYFDFVSVLPSALIEK displayed an amyloid nucleation score of 3.23 ± 0.18.
VDIKFFMGLAFMWRYSSTAD returned an amyloid nucleation score of -0.063 ± 0.39.
KAFIQTVLRNQVSWLANTPH came in with an amyloid nucleation score of -0.745 ± 0.98.
FSWCGWQRRSSVVAGSRILW came in with an amyloid nucleation score of -0.118 ± 1.1.
For the substance SKVIESDSVCYILHRFKNQC, the amyloid nucleation score came to 1.09 ± 0.17.
As for ILHYWVAVSMAQWICIGLKK, the figure is 0.194 ± 0.45; as for HLGNSSNQIILHQCI, 4.67 ± 0.059.
As to SGKGFFDKSKFLVVMRGRTR, the amyloid nucleation score was determined as 0.06 ± 0.39.
As for SHATFRVWHTVVVAV, the figure is -0.031 ± 0.34; as for FQGLSFKHGAIGSAYSQSFD, “inactive”.
KNCAAFLHRHGFEVAQRGTC displayed an amyloid nucleation score of -0.337 ± 0.78.
The result for RCNSDESYL reads 0.078 ± 0.42.
Consider MLFLARRILSEYRFMPTWVG, for which the amyloid nucleation score result is “inactive”.
Substance AVGYYCKSINRKHFIVEKLQ displayed an amyloid nucleation score of -0.298 ± 0.4.
For the substance MQINGRESDCMWNNMNARDW, the amyloid nucleation score was -0.108 ± 0.27.
For the substance PVKNRYTHR, the amyloid nucleation score entry is “inactive”.
On to YIVVCSIRNLGRINLRGSDT, for which the amyloid nucleation score was determined as 0.056 ± 0.8.
In the case of LSIFVF, the amyloid nucleation score was 1.75 ± 0.25.
As to YSIYRINFPVIALHFTGHCV, the amyloid nucleation score is -0.902 ± 0.9.
In turn, VRGPGDGFWLEDGTGSHSYR returned an amyloid nucleation score of -0.078 ± 0.42.
Regarding LVSRRSGHKYYGTTTDCCKN, the amyloid nucleation score result is “inactive”.
As to RVIGPTHYLQLCNIMFCDYI, the amyloid nucleation score was determined as 7.206 ± 0.051.
In turn, WLVHFDHTPNTSL yielded an amyloid nucleation score of -0.069 ± 0.53.
In turn, LTRSRGVSRLYIVRGVTDVW had an amyloid nucleation score of 0.076 ± 0.43.
In the case of TTYHCGP, the amyloid nucleation score stood at 0.039 ± 1.5.
The substance RYICVTFISLGELPFYWWFT showed an amyloid nucleation score of -1.55 ± 0.83.
In turn, NYMWSQPLLYFECGRDQWLA registered an amyloid nucleation score of 2.92 ± 0.11.
Substance QVTTSPQ displayed an amyloid nucleation score of -0.387 ± 0.56.
VRADHYFYITHIKLKMSRV: the amyloid nucleation score result was “inactive”.
On to SARQVSGLTWVM, for which the amyloid nucleation score worked out at 2.52 ± 0.11.
YGRRGNFPSRWTSQHADIKF: the amyloid nucleation score was -0.308 ± 0.57.
With MSVGSRFTHHIMWTVTKNRV, the amyloid nucleation score turned out to be 0.424 ± 1.
For the substance DLQCVAKVHESVGLGHHVHE, the amyloid nucleation score amounted to 0.659 ± 0.5.
VGTFTGV yielded an amyloid nucleation score of -0.189 ± 0.43.
As to CLFSWD, the amyloid nucleation score came out at 0.118 ± 0.3.
As for MTSVADECSLYSWAYSWLMS, the amyloid nucleation score was determined as 1.84 ± 0.57.
In the case of ARLSL, the amyloid nucleation score turned out to be 0.157 ± 0.64.
In turn, GMVLEWWIFMFGVPFSSDRA displayed an amyloid nucleation score of -0.122 ± 0.74.
In turn, GGLGVDATGYHVSTEGEELE registered an amyloid nucleation score of -0.275 ± 0.43.
Regarding RLWYGRSPWELVTIRSQARG, the amyloid nucleation score turned out to be 0.14 ± 0.31.
As for TMRLNQCPLNSFPTLFLYER, the figure is -0.602 ± 0.31; as for RCYIDYSVEFRLHMIKMKTR, -0.227 ± 0.65.
For the substance FERSW, the amyloid nucleation score entry is “inactive”.
The result for AFMSRVGLHW reads 0.691 ± 0.25.
GSLFWEVMKVMADGMCDVSL came in with an amyloid nucleation score of 0.59 ± 0.54.
Substance ASSSGFSMGLCQMYNGTFMG displayed an amyloid nucleation score of -1.21 ± 0.94.
The substance LVNVCFRWNLKCYYQSSEYA displayed an amyloid nucleation score of 0.518 ± 0.32.
Turning to YPTSCVYMCQQAKPFLVLIL, the amyloid nucleation score was -0.655 ± 0.6.
For RLWGYCMHSLVFDTNIWHPL, the amyloid nucleation score stood at 0.461 ± 0.32.
With QLTLSNWLKTSAKA, the amyloid nucleation score was 2.5 ± 0.32.
As to FGPNVSFR, the amyloid nucleation score was -0.638 ± 0.54.
As for VFHAAVM, the amyloid nucleation score was -0.192 ± 0.93.
As for GYMCIVLIRG, the figure is 1.12 ± 0.71; as for QPNSWELWPCSDLRIRLVEE, 0.104 ± 0.34; as for AWFGYISYWNEFFLWDCFWS, -0.366 ± 0.4.
In turn, YLGSWIKHRHAQWIARVRNR displayed an amyloid nucleation score of 0.508 ± 0.29.
As to HRSRITLANVS, the amyloid nucleation score is -0.666 ± 0.32.
In turn, RTFHYAVNINRWLNKECGLH registered an amyloid nucleation score of -0.702 ± 1.7.
SDDLFVNFSMSVWFLKVSLR gave an amyloid nucleation score of 0.515 ± 0.34.
In the case of GLWIRFIAVTSSSVEIRANS, the amyloid nucleation score was -0.776 ± 0.62.
As for QNPNVDERNSTS, the figure is 0.69 ± 0.52.
